# Laboratory results from patent publication US9150638B2, “Factor XII inhibitors for treating interstitial lung disease” (Justus-Liebig-Universität Giessen, priority 2010, dated 2015).
# B1: FXIIa: activated factor XII (American Diagnostica) used to stimulate fibroblasts (protein)
# chain: IPPWEAPKEHKYKAEEHTVVLTVTGEPCHFPFQYHRQLYHKCTHKGRPGPQPWCATTPNFDQDQRWGYCLEPKKVKDHCSKHSPCQKGGTCVNMPSGPHCLCPQHLTGNHCQKEKCFEPQLLRFFHKNEIWYRTEQAAVARCQCKGPDAHCQRLASQACRTNPCLHGGRCLEVEGHRLCHCPVGYTGAFCDVDTKASCYDGRGLSYRGLARTTLSGAPCQPWASEATYRNVTAEQARNWGLGGHAFCRNPDNDIRPWCFVLNRDRLSWEYCDLAQCQTPTQAAPPTPVSPRLHVPLMPAQPAPPKPQPTTRTPPQSQTPGALPAKREQPPSLTRNGPLSCGQRLRKSLSSMTRVVGGLVALRGAHPYIAALYWGHSFCAGSLIAPCWVLTAAHCLQDRPAPEDLTVVLGQERRNHSCEPCQTLAVRSYRLHEAFSPVSYQHDLALLRLQEDADGSCALLSPYVQPVCLPSGAARPSETTLCQVAGWGHQFEGAEEYASFLQEAQVPFLSLERCSAPDVHGSSILPGMLCAGFLEGGTDACQGDSGGPLVCEDQAAERRLTLQGIISWGSGCGDRNKPGVYTDVAYYLAWIREHTVS
# B2: CTI: Corn Trypsin Inhibitor, a specific FXII activity inhibitor (Calbiochem) (protein)
# chain: SAGTSCVPGWAIPHNPLPSCRWYVTSRTCGIGPRLPWPELKRRCCRELADIPAYCRCTALSILMDGAIPPGPDAQLEGRLEDLPGCPREVQRGFAATLVTEAECNLATIS
# Columns and labels:
# FXII [1] = experiment: TGF-β1-induced FXII expression in HLF; type: cell-based, human; conditions: for FXII expression in response to TGF-β1 (Western blot): HLF treated with inhibitor 1 h prior to TGF-β1 for 48 h
# Protocol: Human lung specimens of the pulmonary parenchyma and mouse lungs were chopped into <1 mm^3 pieces. The minced pieces were washed twice with PBS and then plated in 100-mm dishes (Greiner-bio-one, Frickenhausen, Germany). The specimens were cultured with Dulbecco's modified Eagle's medium (DMEM; Invitrogen, Karlsruhe, Germany) supplemented with 10% fetal calf serum (FCS; HyClone, South Logan, UT), and 1% penicillin/streptomycin (Invitrogen) in humidified atmosphere of 5% CO2 at 37° C. Purity of isolated fibroblasts was verified by positive staining for vimentin, fibronectin and collagen IV. All experiments were carried out with lung fibroblasts from passages 3-4. The mouse NIH3T3 fibroblasts were cultured in DMEM supplemented with 10% FCS, and 1% penicillin/streptomycin in humidified atmosphere of 5% CO2 at 37° C.
# (§1) Proteins separated on SDS polyacrylamide gel were transferred to a PVDF membrane (Amersham Biosciences, Freiburg, Germany) using wet transfer technique in transfer buffer (25 mM Tris, 192 mM Glycine, 20% (v/v) Methanol) for 1 h at 100V. After blocking with 5% non-fat dry milk in tris-buffered saline (TBS; 25 mM Tris-Cl, 150 mM NaCl, pH 7.5) containing 0.1% (v/v) Tween 20 (TBS-T), the membranes were incubated at 4° C. overnight with appropriate primary antibody diluted in 1% BSA in TBS-T. After 1 h incubation with peroxidase-labelled secondary antibody (all from Dako, Gostrup, Denmark) proteins were detected using ECL Plus Kit (Amersham Biosciences, Freiburg, Germany). To determine the amounts of protein loaded on the gel, blots were in 1 hour (stripping buffer: 100 mM Glycine, 1% HCl) and reprobed using an anti-β-actin or appropriate anti-pan antibody.
# Pre-designed, commercially available siRNA sequences directed against human Smad 3 (Dharmacon, Chicago, Ill.), human JNK1 (Abnova, Heidelberg, Germany), and an universal negative-control siRNA (Ambion, Austin, Tex.) were employed. Cells were treated with siRNA (250 nM each) using the X-treme Gene siRNA Transfection Reagent (Roche). The siRNA-mediated downregulation of the target genes was assessed 72 h after transfection by Western blotting.
# murine lung fibroblasts = experiment: Proliferation assay, [3H]-thymidine incorporation after FXIIa stimulation; type: cell-based; conditions: for FXIIa-induced proliferation ([3H]-thymidine incorporation): added or preincubated 1-2 hours before FXIIa, 10.0 μM PD98059, 5 μM SP600125, 0.7 μM Wortmannin, 3 μM SB203580, blocking antibodies 5 μg/ml
# Protocol: Human lung specimens of the pulmonary parenchyma and mouse lungs were chopped into <1 mm^3 pieces. The minced pieces were washed twice with PBS and then plated in 100-mm dishes (Greiner-bio-one, Frickenhausen, Germany). The specimens were cultured with Dulbecco's modified Eagle's medium (DMEM; Invitrogen, Karlsruhe, Germany) supplemented with 10% fetal calf serum (FCS; HyClone, South Logan, UT), and 1% penicillin/streptomycin (Invitrogen) in humidified atmosphere of 5% CO2 at 37° C. Purity of isolated fibroblasts was verified by positive staining for vimentin, fibronectin and collagen IV. All experiments were carried out with lung fibroblasts from passages 3-4. The mouse NIH3T3 fibroblasts were cultured in DMEM supplemented with 10% FCS, and 1% penicillin/streptomycin in humidified atmosphere of 5% CO2 at 37° C. The primary murine lung fibroblasts were seeded in 48-well plates and starved in serum free DMEM (Dulbecco's Modified Eagle's Medium) for 24 hours prior to FXIIa (American Diagnostica, Stamford, Conn.) stimulation. In some experiments cells were preincubated with 5 μg/ml anti-uPAR (R&D Systems, Wiesbaden, Germany), anti-β1-integrin or anti-α5-integrin (both from Millipore, Billerica, Mass.) blocking antibodies 1-2 hours before exposure to FXIIa. In addition in some experiment 10.0 μM PD98059, 5 μM SP600125, 0.7 μM Wortmannin, 3 μM SB203580 (all from Calbiochem, Darmstadt, Germany) were added to the cell culture medium 1-2 hours prior to the addition of FXIIa. Cells were treated with 3-9 μg/ml FXIIa alone or in the presence of its specific inhibitors: Corn Trypsin Inhibitor ([…]-chloromethylketone (PCK, Bachem, Weil am Rhein, Germany) or uPAR synthetic peptides. After 24-36 hours the cells were exposed to [3H]Thymidine (0.2 μCi per well) for 6-12 hours, rinsed three times with PBS and solubilized with 0.2 ml 0.5M sodium hydroxide. 0.1 ml of the solubilized material was quantified by liquid scintillation counting (TRI-CARB® 1500, A Canbera Company, Meriden, Conn.). [^3H]Thymidine incorporation was expressed as absolute radioactivity (counts per minute per well).
# cyclin D1 = experiment: Immunoblot of cyclin D1 expression after FXIIa stimulation; type: cell-based, murine; conditions: 6 hours after 6 μg/ml FXIIa stimulation
# Protocol: as §1
# [2] = tested on: bleomycin induced lung fibrosis; experiment: Bleomycin induced lung fibrosis in mice with intratracheal CTI
# Excerpt: Male mice weighing between 20-22 g were used in all experiments. Animals were kept according to NIH guidelines and experiments were undertaken with permission of local authorities. The animals were anesthetized by intraperitoneal injection of a mixture of ketamine hydrochloride and xylazine hydrochloride. Bleomycin in dosis 5U/kg body weight was given as aerosol. For bleomycin delivery, animals were orotracheally intubated and mechanically ventilated. A microsprayer (Penn-Century Inc, Philadelphia, Pa.) was filled with 100 μl of saline solution containing bleomycin, introduced into the tracheal cannula, positioned slightly above the carina and aerosol generation was achieved under end-expiratory breath arrest by rapidly emptying the syringe. Controls mice received vehicle only (0.9% saline). 5 mg/kg CTI and 8 mg/kg PCK, both diluted in 0.9% saline, were administrated intratracheally on day 9, 12, 15 and 18 in dosis or of mouse body weight, respectively. The mice were sacrificed after 21 days post application (if not indicated in the text) with a lethal dose of ketamine and xylazine.
# Mice were tracheotomised and ventilated in a volume driven mode at a positive end-expiratory pressure of 0 kPa. Respiration rate was set at 20 breaths·min^−1 and ventilation pressure was recorded while inflating the lung at a tidal volume of 200 μL.
# After sacrifice of animals, the chest was opened and the lungs were flushed via a catheter that was placed into the pulmonary artery with PBS buffer. Once the effluent was clear of blood, lungs were removed and placed in paraformaldehyde or nitrogen for further examination. For cells isolation lungs were placed in PBS buffer.
# Paraffin-embedded, formalin-fixed lung tissue was sectioned at 5 microns and processed for immunohistochemical staining using appropriate primary antibody and ZytoChem Plus AP-Fast Red Kit according to the manufacturer's instructions (Zytomed Systems, Berlin, Germany). Negative controls were obtained in all cases by omitting the primary antibody.
# Akt = experiment: Western blot of Akt phosphorylation after FXIIa exposure; type: cell-based, murine; conditions: after 30 min of FXIIa exposure
# Protocol: as §1
# FXII [3] = target: T1, FXII (Homo sapiens, UniProt P00748); experiment: FXII activity assay using chromogenic substrate, BALF from IPF patients; type: biochemical
# T1 construct: increased enzymatic activity FXII in broncholaveolar lavage fluid (BALF) from IPF patients; from tissue; host or cells: bronchoalveolar lavage fluid (BALF) of IPF patients and donors
# T1 sequence (P00748 20-615): B1 chain
# Excerpt: A test for determining the catalytic activity of FXIIa is described in Kannemeier C, Shibamiya A, Nakazawa F, Trusheim H, Ruppert C, Markart P, Song Y, Tzima E, Kennerknecht E, Niepmann M, Bruehl M L, Sedding D, Massberg S, Gunther A, Engelmann B, Preissner K T. Extracellular RNA constitutes a natural procoagulant cofactor in blood coagulation. Proc Natl Acad Sci USA. 104:6388-6393, 2007. Briefly, the FXIIa-sample and a chromogenic substrate peptide is mixed, and the release of p-nitroanilin is followed over time in a photometer at 405 nm. A compound is suitable as an inhibitor of the catalytic, in particular the enzymatic activity of FXIIa if it is capable of reducing the catalytic activity in that assay in a significant manner, preferably by at least 10%, more preferably by at least 25%, most preferably by at least 50% such as at least 75% or even at least 90%.
# p44/42 = experiment: Western blot of p44/42 phosphorylation after FXIIa exposure; type: cell-based, murine; conditions: after 30 min of FXIIa exposure
# Protocol: as §1
# [4] = FIG. 25D,E, bleomycin application
# [5] = day 21 after bleomycin, CTI 5 mg/kg intratracheally
# [6] = saline control animals which received CTI
molecule,measurement,setting,value
TGF-β1: cytokine (R&D Systems) used at 10 ng/ml to stimulate cells,synthesis of FXII in HLF,FXII [1]; exposure to 10 ng/ml TGF-β1,stimulated the synthesis of FXII in a time dependent manner
"C[S+]([O-])c1ccc(-c2nc(-c3ccncc3)c(-c3ccc(F)cc3)[nH]2)cc1 (stereo not drawn) [SB203580, reference compound]",FXIIa-induced proliferation ([3H]-thymidine incorporation),murine lung fibroblasts,No change in DNA sythesis
same,FXII expression in response to TGF-β1 (Western blot),FXII [1],No change in FXII expression
"COc1cccc(-c2cc(=O)c3ccccc3o2)c1N [PD98059, reference compound]",FXIIa-induced proliferation ([3H]-thymidine incorporation),murine lung fibroblasts,reduction of murine lung fibroblasts proliferation
same,FXII expression in response to TGF-β1 (Western blot),FXII [1],No change in FXII expression
B1,DNA synthesis ([3H]-thymidine incorporation) after FXIIa treatment,murine lung fibroblasts; increasing concentration of FXIIa,dose-dependent increase
same,cyclin D expression,cyclin D1,increased
B2,FXIIa-induced proliferation ([3H]-thymidine incorporation),murine lung fibroblasts,blocked
same,lung remodelling and collagen deposition,"[2]; FIG. 25A, bleomycin-treated mice",largely protected against lung remodelling and collagen deposition
same,survival curves (Kaplan-Meier plot),"[2]; FIG. 25B, bleomycin-treated mice",significantly protected
same,increase in collagen content,[2]; [4],significantly prevented
same,increase in septum thickness,[2]; [4],significantly prevented
same,collagen accumulation (Masson-Trichrom staining),[2]; [5],markedly reduced
same,histologic findings in the lungs (fibrotic lesions),[2]; [5],less fibrotic lesions
same,lung compliance,"[2]; day 21 after bleomycin, CTI 5 mg/kg intratracheally at day 9, 12, 15 and 18",significantly improved
same,mortality,"[2]; day 21 post bleomycin challenge, CTI 5 mg/kg intratracheally at day 9, 12, 15 and 18",20%
same,histological changes in the lung,[2]; [6],no histological changes in the lung
same,inflammatory cells infiltration into airspaces,[2]; [6],mild degree of inflammatory cells infiltration into airspaces
same,Akt phosphorylation,Akt,attenuated
same,FXII activity (chromogenic substrate),FXII [3],blockade of FXII activity
same,p44/42 phosphorylation,p44/42,attenuated
